Reference: PMC4834876

Target: Taxol-stabilised microtubules of porcine brain tubulin (porcine) (UniProt P02550)
Test: co-sedimentation

Sequence of EB1 full-length (end-binding protein 1), wild type (Q15691 whole entry): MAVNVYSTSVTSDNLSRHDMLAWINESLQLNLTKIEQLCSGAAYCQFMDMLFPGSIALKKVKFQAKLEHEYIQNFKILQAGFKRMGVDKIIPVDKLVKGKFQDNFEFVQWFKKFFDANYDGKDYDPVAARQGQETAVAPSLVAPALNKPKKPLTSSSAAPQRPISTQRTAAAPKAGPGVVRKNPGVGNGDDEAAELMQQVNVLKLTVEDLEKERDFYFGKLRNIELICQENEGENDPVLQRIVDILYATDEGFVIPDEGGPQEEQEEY

percent bound: 50%
Substance: EB1 full-length (end-binding protein 1), wild type (from UniProt Q15691 1-268) (natural protein)
